Substitutions are numbered along the chain they refer to. Numbers in names are those of the source.
B1: A42G Q152K S170S G174N Q175E K178S A182Y G183A: Gaussia luciferase mutant (protein)
chain: MGVKVLFALICIAVAEAKPTENNEDFNIVAVASNFATTDLDGDRGKLPGKKLPLEVLKEMEANARKAGCTRGCLICLSHIKCTPKMKKFIPGRCHTYEGDKESAQGGIGEAIVDIPEIPGFKDLEPMEQFIAQVDLCVDCTTGCLKGLANVKCSDLLKKWLPQRCATFASKIQNEVDSIKGYAGD
modifications: SIGNAL (1)..(17)
notes: Gaussia luciferase mutant
B2: Q152H Q163S T167G S170V G174N G183A: Gaussia luciferase mutant (protein)
chain: B1 chain with G42A, K152H, Q163S, T167G, S170V, E175Q, S178K, Y182A
modifications: SIGNAL (1)..(17)
notes: Gaussia luciferase mutant
B3: Q152R S154F Q163D S170T G174N K178T A182Y: Gaussia luciferase mutant (protein)
chain: B1 chain with G42A, K152R, S154F, Q163D, S170T, E175Q, S178T, A183G
modifications: SIGNAL (1)..(17)
notes: Gaussia luciferase mutant
B4: Q152R Q163T T167S S170N G174K K178S A182Y G183A: Gaussia luciferase mutant (protein)
chain: B1 chain with G42A, K152R, Q163T, T167S, S170N, N174K, E175Q
modifications: SIGNAL (1)..(17)
notes: Gaussia luciferase mutant
B5: Q152K Q163D S170N G174K Q175E K178T A182L G183A: Gaussia luciferase mutant (protein)
chain: B1 chain with G42A, Q163D, S170N, N174K, S178T, Y182L
modifications: SIGNAL (1)..(17)
notes: Gaussia luciferase mutant
B6: Q152H Q163D T167S S170N A182L G183A: Gaussia luciferase mutant (protein)
chain: B1 chain with G42A, K152H, Q163D, T167S, S170N, N174G, E175Q, S178K, Y182L
modifications: SIGNAL (1)..(17)
notes: Gaussia luciferase mutant
B7: Q152R Q163S T167G S170V G174K Q175E K178S A182Y G183A: Gaussia luciferase mutant (protein)
chain: B1 chain with G42A, K152R, Q163S, T167G, S170V, N174K
modifications: SIGNAL (1)..(17)
notes: Gaussia luciferase mutant
B8: Q152R Q163S T167G S170D G174K A182Y G183A: Gaussia luciferase mutant (protein)
chain: B1 chain with G42A, K152R, Q163S, T167G, S170D, N174K, E175Q, S178K
modifications: SIGNAL (1)..(17)
notes: Gaussia luciferase mutant
B9: Q152H Q163T T167S S170D G174K K178N A182Y G183N: Gaussia luciferase mutant (protein)
chain: B1 chain with G42A, K152H, Q163T, T167S, S170D, N174K, E175Q, S178N, A183N
modifications: SIGNAL (1)..(17)
notes: Gaussia luciferase mutant
B10: N27D V29E A30G V31I A32V S33K A36I T37D L40T: Gaussia luciferase mutant (protein)
chain: MGVKVLFALICIAVAEAKPTENNEDFDIEGIVKNFIDTDTDADRGKLPGKKLPLEVLKEMEANARKAGCTRGCLICLSHIKCTPKMKKFIPGRCHTYEGDKESAQGGIGEAIVDIPEIPGFKDLEPMEQFIAQVDLCVDCTTGCLKGLANVQCSDLLKKWLPQRCATFASKIQGQVDKIKGAGGD
modifications: SIGNAL (1)..(17)
notes: Gaussia luciferase mutant
B11: N27D V29S V31L A32V S33G A36N T37D L40R: Gaussia luciferase mutant (protein)
chain: B10 chain with E29S, G30A, I31L, K33G, I36N, T40R
modifications: SIGNAL (1)..(17)
notes: Gaussia luciferase mutant
B12: K66N H79K P84L S103T E110A D123N L124M E128G V138E: Gaussia luciferase mutant (protein)
chain: MGVKVLFALICIAVAEAKPTENNEDFNIVAVASNFATTDLDADRGKLPGKKLPLEVLKEMEANARNAGCTRGCLICLSKIKCTLKMKKFIPGRCHTYEGDKETAQGGIGAAIVDIPEIPGFKNMEPMGQFIAQVDLCEDCTTGCLKGLANVQCSDLLKKWLPQRCATFASKIQGQVDKIKGAGGD
modifications: SIGNAL (1)..(17)
notes: Gaussia luciferase mutant
B13: K66R P84A E102S S103I A104G E110A L124M V138E: Gaussia luciferase mutant (protein)
chain: B12 chain with N66R, K79H, L84A, E102S, T103I, A104G, N123D, G128E
modifications: SIGNAL (1)..(17)
notes: Gaussia luciferase mutant
B14: K66R P84A E102A S103I A104G E110A: Gaussia luciferase mutant (protein)
chain: B12 chain with N66R, K79H, L84A, E102A, T103I, A104G, N123D, M124L, G128E, E138V
modifications: SIGNAL (1)..(17)
notes: Gaussia luciferase mutant
B15: P84A E102A S103T E110A V138D: Gaussia luciferase mutant (protein)
chain: B12 chain with N66K, K79H, L84A, E102A, N123D, M124L, G128E, E138D
modifications: SIGNAL (1)..(17)
notes: Gaussia luciferase mutant
B16: K66R E102K E110G D123N V138D: Gaussia luciferase mutant (protein)
chain: B12 chain with N66R, K79H, L84P, E102K, T103S, A110G, M124L, G128E, E138D
modifications: SIGNAL (1)..(17)
notes: Gaussia luciferase mutant
B17: K66N P84L E102K E110P D123N: Gaussia luciferase mutant (protein)
chain: B12 chain with K79H, E102K, T103S, A110P, M124L, G128E, E138V
modifications: SIGNAL (1)..(17)
notes: Gaussia luciferase mutant
B18: K66R P84L E102D S103T E110A V138E: Gaussia luciferase mutant (protein)
chain: B12 chain with N66R, K79H, E102D, N123D, M124L, G128E
modifications: SIGNAL (1)..(17)
notes: Gaussia luciferase mutant
B19: P84A E102S S103T A104G E110A L124M V138E: Gaussia luciferase mutant (protein)
chain: B12 chain with N66K, K79H, L84A, E102S, A104G, N123D, G128E
modifications: SIGNAL (1)..(17)
notes: Gaussia luciferase mutant
B20: K66R E102D E110P V138D: Gaussia luciferase mutant (protein)
chain: B12 chain with N66R, K79H, L84P, E102D, T103S, A110P, N123D, M124L, G128E, E138D
modifications: SIGNAL (1)..(17)
notes: Gaussia luciferase mutant

Test: Luminescence activity assay of purified Gaussia luciferase mutants on coelenterazine
Format: biochemical
Set-up: key to Activity of mutant relative to wild-type Gaussia luciferase without the signal peptide: ratio of mutant luminescence intensity to wild-type Gaussia luciferase
Details: Substrate CTZ (Table 16)
Experimental: (§1) In this Example, the protein concentration was determined with a BCA quantitative kit (Thermo Scientific™ Pierce™ BCA Protein Assay Kit) accurately. The purified luciferase obtained in Example 5 was diluted with diluent (50 mM Tris-HCl, pH 8.0, 100 mM NaCl, 0.1% (v/v) Tween-20) to 1 μg/mL. The diluted luciferase, taken for 10 μL, was moved into a black 96-well plate, then added with 90 μL of the substrates coelenterazine, fluoro-coelenterazine or coelenterazine derivative ZS2 (purchased from Biolab) which was diluted into 100 μM with the same diluent, and the luminescence intensity of the plate was read with a self-luminescence module of a microplate reader. The mutation site of the mutant, the measured luminescence intensity, the ratio of luminescence intensities of the advantageous mutants to the wild-type Gaussia luciferase without the signal peptide having the sequence shown in SEQ ID NO: 3 are shown in Table 15. The results of catalytic activity assay of the advantageous mutants relative to the wild-type Gaussia luciferase without the signal peptide having the sequence shown in SEQ ID NO: 3 on substrate coelenterazine are shown in FIG. 6. […] The results of catalytic activity assay of the advantageous mutants relative to the wild-type Gaussia luciferase without the signal peptide having the sequence shown in SEQ ID NO: 3 on substrate fluoro-coelenterazine are shown in FIG. 7.
(§2) The new mutant library constructed in Example 7 was screened and tested for substrate specificity. Expression and purification schemes were the same as that in Example 5, and the activity assay scheme was the same as that in Example 6. The respective catalytic activities of combinatorial mutants on coelenterazine, fluoro-coelenterazine or coelenterazine derivative ZS2, and coelenterazine derivative ZS26 (purchased from BIOLAB) were assayed, and comparisons among the substrate specificities of the combinatorial mutants were based on the ratios of catalytic activities on two corresponding substrates.

Activity of mutant relative to wild-type Gaussia luciferase without the signal peptide	Molecule
0.736	B1
0.006	B2
0.020	B3
1.030	B4
1.079	B5
1.197	B6
0.992	B7
1.050	B8
0.079	B9
0.779	B10
0.981	B11
1.111	B12
1.302	B13
0.122	B14
0.174	B15
1.000	B16
0.172	B17
0.626	B18
0.375	B19
0.674	B20

Test: Luminescence activity assay of purified Gaussia luciferase mutants on coelenterazine derivative ZS2
Format: biochemical
Set-up: key to Activity of mutant relative to wild-type Gaussia luciferase without the signal peptide: ratio of mutant luminescence intensity to wild-type Gaussia luciferase
Details: Substrate ZS2 (Table 16)
Experimental: as §1, §2

Activity of mutant relative to wild-type Gaussia luciferase without the signal peptide	Molecule
1.751	B1
0.064	B2
0.003	B3
0.413	B4
1.183	B5
0.698	B6
1.011	B7
1.402	B8
0.089	B9
1.379	B10
0.146	B11
1.709	B12
0.587	B13
1.209	B14
4.252	B15
1.611	B16
0.112	B17
3.079	B18
4.457	B19
1.560	B20
